Measured values reported in PMC10047488.

Assays:
[1] = target: Gal4 DNA-binding domain fusion of parkin fragment P2 (amino acids 141-326) (human) (UniProt O60260); experiment: two-hybrid; yeast two-hybrid based growth assay: diploids spotted in serial dilution on SD/-Leu/-Trp or SD/-Ade/-His/-Leu/-Trp plates with 0, 1, 5 or 10 uM PMN (peiminine), 30 °C, 3 days; and OD600 in liquid selective medium every 12 h for 48 h
[2] = target: Gal4 DNA-binding domain fusion of HSD11B1L-181 fragment H2 (amino acids 92-181) (human); experiment: as above
Chain of Gal4 DNA-binding domain fusion of HSD11B1L-181 fragment H2 (amino acids 92-181) (human) (Q7Z5J1 92-181): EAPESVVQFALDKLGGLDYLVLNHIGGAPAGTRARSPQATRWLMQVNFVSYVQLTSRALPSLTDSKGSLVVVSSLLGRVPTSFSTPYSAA

Substance	reduction of the growth rate in selective medium after 48 h, 10 uM PMN group against the DMSO group [1] [%]	reduction of the growth rate in selective medium after 48 h, 10 mM PMN group against the DMSO group [2] [%]
Gal4 activation domain fusion of HSD11B1L-181 fragment H2 (amino acids 92-181) (domain or fragment)	95	
Gal4 activation domain fusion of parkin fragment P2 (amino acids 141-326) (from UniProt O60260-1 141-326) (domain or fragment)		93
